This test deals with T1, human PTH-1 receptors (Homo sapiens, UniProt Q03431).
T1 construct: expressed in transfected cells
T1 sequence (Q03431 27-593): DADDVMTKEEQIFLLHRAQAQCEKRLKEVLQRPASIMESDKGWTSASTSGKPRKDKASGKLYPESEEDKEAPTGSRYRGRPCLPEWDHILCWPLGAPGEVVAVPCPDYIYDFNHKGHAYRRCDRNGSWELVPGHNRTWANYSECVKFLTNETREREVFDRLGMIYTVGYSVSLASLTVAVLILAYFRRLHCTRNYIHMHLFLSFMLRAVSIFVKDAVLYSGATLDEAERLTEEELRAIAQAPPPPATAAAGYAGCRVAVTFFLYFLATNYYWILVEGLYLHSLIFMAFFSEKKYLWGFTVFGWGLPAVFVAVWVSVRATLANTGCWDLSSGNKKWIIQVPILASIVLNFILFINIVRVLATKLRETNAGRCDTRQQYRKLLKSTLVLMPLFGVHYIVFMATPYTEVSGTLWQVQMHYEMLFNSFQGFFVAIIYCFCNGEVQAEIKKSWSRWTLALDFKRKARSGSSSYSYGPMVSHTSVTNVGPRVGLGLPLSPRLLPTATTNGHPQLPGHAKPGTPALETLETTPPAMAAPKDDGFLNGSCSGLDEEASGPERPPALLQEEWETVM
Kind of test: AC activation in cells that express fewer human PTH-1 receptors (LLC-PK1 subclones, SaOS-2). The format is cell-based. Conditions: LLC-PKI or SaOS-2 osteosarcoma cells, 10,000-100,000 receptors per cell; data not shown. Here is the method:
Intracellular cAMP accumulation, PLC activation and PTHR binding affinity were measured as previously reported (Bringhurst, F. R., et al., Endocrinology 132(5):2090-2098 (1993); Guo, J., et al., Endocrinology 136(9):3884-3891 (1995)). Intracellular cAMP accumulation was measured in extracts of cells that were exposed to human PTH peptides in the presence of isobutylmethyxanthine (IBMX, 1 mM) at 37° C. for 15 min. After terminating the reactions by aspiration and freezing in liquid nitrogen, cell monolayers were extracted with 50 mM HCl and cAMP was measured using a radioimmunoassay kit (Dupont-New England Nuclear, Boston, Mass.).
The possibility that the [Gly^1,Arg^19]hPTH-(1-28) peptide might be useful, especially in rodent models, as a signal-selective analog to dissociate AC from PLC signaling via the PTH-1 receptor was examined further using the EW5 subclone of LLC-PK1 cells that stably expresses rat PTH-1 receptors (Guo, J., et al., Endocrinology 136(9):3884-3891 (1995)). […]

No end group written: not given here.

As to “GVSEIQLMHNLGKHLNSMRRVEWLRKKL [[Gly^1,Arg^19]hPTH-(1-28)]”, the “fold reduction of AC activation relative to hPTH-(1-34)” value is listed as 10-20 fold.

For the origin of these results see patent publication US7479478B2, “Human parathyroid hormone modifications, preparation and use” (The General Hospital Corporation, priority 1998, dated 2009).
